Results on seven molecules are retold here after US20220389118A1 (Chugai, published 2022).

In test [1] the target is T1, human FcγRIIb extracellular domain with C-terminal His tag (human, UniProt P31994 43-217).
T1 construct: extracellular domain
T1 sequence (looked up): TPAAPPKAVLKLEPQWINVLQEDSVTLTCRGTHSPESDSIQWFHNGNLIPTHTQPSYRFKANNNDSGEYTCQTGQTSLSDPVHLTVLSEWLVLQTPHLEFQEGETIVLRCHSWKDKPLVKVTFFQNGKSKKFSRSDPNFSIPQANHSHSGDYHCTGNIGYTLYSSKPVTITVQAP
The experiment in a line: SPR (Biacore), parent IL6R-B3/IL6R-L. (In SPR one partner is held on a chip, and binding of the other changes the refractive index at the surface.)

Test [2] deals with T2, human FcγRIIa type R extracellular domain with C-terminal His tag (human, UniProt P12318 34-217).
T2 construct: extracellular domain; also called FcγRIIaR; FcγRIIa(R)
T2 sequence (looked up): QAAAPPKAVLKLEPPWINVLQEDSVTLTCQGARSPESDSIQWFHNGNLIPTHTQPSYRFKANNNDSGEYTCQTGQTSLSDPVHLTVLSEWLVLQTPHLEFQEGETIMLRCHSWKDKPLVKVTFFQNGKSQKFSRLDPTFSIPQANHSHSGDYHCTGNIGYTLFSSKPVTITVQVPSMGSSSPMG
Kind of test: SPR (Biacore), parent IL6R-B3/IL6R-L.

In test [3] the target is T1, human FcγRIIb extracellular domain with …. Kind of test: SPR (Biacore).
Test [4] addresses T3, human FcγRIa extracellular domain with C-terminal His tag (human, UniProt P12314 16-292).
T3 construct: extracellular domain
Kind of test: SPR (Biacore).

Test [5] deals with T2, human FcγRIIa type R extracellular …. Kind of test: SPR (Biacore).
Test [6] has as its target T4, human FcγRIIa type H extracellular domain with C-terminal His tag (human, UniProt P12318 34-217).
T4 construct: extracellular domain; also called FcγRIIaH; FcγRIIa(H)
T4 sequence (looked up): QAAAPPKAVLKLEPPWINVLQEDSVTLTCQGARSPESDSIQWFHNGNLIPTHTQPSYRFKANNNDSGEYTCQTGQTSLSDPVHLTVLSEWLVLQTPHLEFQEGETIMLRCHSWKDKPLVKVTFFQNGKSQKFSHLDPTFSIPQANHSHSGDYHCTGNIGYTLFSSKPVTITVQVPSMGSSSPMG
Kind of test: SPR (Biacore).

Test [7] has as its target T1, human FcγRIIb extracellular domain with …. Kind of test: SPR (Biacore), ratio of KDs.

T3 sequence (P12314 16-292): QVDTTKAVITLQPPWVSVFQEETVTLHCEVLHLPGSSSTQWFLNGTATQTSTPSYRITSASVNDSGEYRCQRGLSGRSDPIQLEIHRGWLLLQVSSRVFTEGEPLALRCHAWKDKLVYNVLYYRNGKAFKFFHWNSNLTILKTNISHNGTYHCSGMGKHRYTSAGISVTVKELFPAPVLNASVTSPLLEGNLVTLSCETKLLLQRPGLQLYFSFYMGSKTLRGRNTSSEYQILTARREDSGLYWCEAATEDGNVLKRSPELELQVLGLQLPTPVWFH

B1: IL6R-BP538/IL6R-L (antibody, human IgG1, kappa)
heavy: QVQLQESGPGLVKPSETLSLTCAVSGHSISHDHAWSWVRQPPGEGLEWIGFISYSGITNYNPSLQGRVTISRDNSKNTLYLQMNSLRAEDTAVYYCARSLARTTAMDYWGEGTLVTVSSASTKGPSVFPLAPSSKSTSGGTAALGCLVKDYFPEPVTVSWNSGALTSGVHTFPAVLQSSGLYSLSSVVTVPSSSLGTQTYICNVNHKPSNTKVDKKVEPKSCDKTHTCPPCPAPELLGDDSVFLFPPKPKDTLMISRTPEVTCVVIDVSEEDGEVKFNWYVDGVEVHNAKTKPREEQYNSTYRVVSVLTVLHQDWLNGKEYKCKVSNKALPRPIEKTISKAKGQPREPQVYTLPPSRDELTKNQVSLTCLVKGFYPSDIAVEWESNGQPENNYKTTPPVLDSDGSFFLYSKLTVDKSRWQQGNVFSCSVMHEALHNHYTQESLSLSP
light: not shown
notes: copies: 2 + 2
By Kd is commonly meant a measure of binding affinity in units of concentration. The low end stands for a tighter complex, the high end for a looser complex. For the molecule B1, the “KD(IIb) parent/KD(IIb) altered polypeptide” value in test [1] stood at 587. In addition, in test [2], the “KD(IIaR) parent/KD(IIaR) altered polypeptide” value is 5.4. Besides, the Kd in test [3] turned out to be 5.3 nM; in test [4], 55 nM; in test [5], 200 nM; in test [6], 3000 nM. Further, in test [7], the “KD(IIaH)/KD(IIb)” value turned out to be 568. The “KD(IIaR)/KD(IIb)” value in test [7] was 38.6.

B2: IL6R-BP488/IL6R-L (antibody, human IgG1, kappa)
heavy: QVQLQESGPGLVKPSETLSLTCAVSGHSISHDHAWSWVRQPPGEGLEWIGFISYSGITNYNPSLQGRVTISRDNSKNTLYLQMNSLRAEDTAVYYCARSLARTTAMDYWGEGTLVTVSSASTKGPSVFPLAPSSKSTSGGTAALGCLVKDYFPEPVTVSWNSGALTSGVHTFPAVLQSSGLYSLSSVVTVPSSSLGTQTYICNVNHKPSNTKVDKKVEPKSCDKTHTCPPCPAPDLLGDDSVFLFPPKPKDTLMISRTPEVTCVVIDVAEEDGEVKFNWYVDGVEVHNAKTKPREEQDNSTYRVVSVLTVLHQDWLNGKEYKCKVSNKALPRPIEKTISKAKGQPREPQVYTLPPSRDELTKNQVSLTCLVKGFYPSDIAVEWESNGQPENNYKTTPPVLDSDGSFFLYSKLTVDKSRWQQGNVFSCSVMHEALHNHYTQESLSLSP
light: not shown
notes: copies: 2 + 2
B2: the “KD(IIb) parent/KD(IIb) altered polypeptide” value in test [1] worked out at 1680. Moreover, the “KD(IIaR) parent/KD(IIaR) altered polypeptide” value in test [2] was determined as 14.8. The Kd in test [3] came out at 1.9 nM; in test [4], 2.2 nM; in test [5], 74 nM; in test [6] it was 1600 nM. Also, the “KD(IIaH)/KD(IIb)” value in test [7] came to 865. The “KD(IIaR)/KD(IIb)” value in test [7] turned out to be 40.1.

B3: IL6R-BP556/IL6R-L (antibody, human IgG1, kappa)
heavy: QVQLQESGPGLVKPSETLSLTCAVSGHSISHDHAWSWVRQPPGEGLEWIGFISYSGITNYNPSLQGRVTISRDNSKNTLYLQMNSLRAEDTAVYYCARSLARTTAMDYWGEGTLVTVSSASTKGPSVFPLAPSSKSTSGGTAALGCLVKDYFPEPVTVSWNSGALTSGVHTFPAVLQSSGLYSLSSVVTVPSSSLGTQTYICNVNHKPSNTKVDKKVEPKSCDKTHTCPPCPAPELLGDDSVFLFPPKPKDTLMISRTPEVTCVVIDVGEEDGEVKFNWYVDGVEVHNAKTKPREEQDNSTYRVVSVLTVLHQDWLNGKEYKCKVSNKALPRPIEKTISKAKGQPREPQVYTLPPSRDELTKNQVSLTCLVKGFYPSDIAVEWESNGQPENNYKTTPPVLDSDGSFFLYSKLTVDKSRWQQGNVFSCSVMHEALHNHYTQESLSLSP
light: not shown
notes: copies: 2 + 2
For the molecule B3, the “KD(IIb) parent/KD(IIb) altered polypeptide” value in test [1] came out at 370. In addition, the “KD(IIaR) parent/KD(IIaR) altered polypeptide” value in test [2] was found to be 3.7. For the same molecule, the Kd in test [3] is 8.4 nM; in test [4] it was 43 nM; in test [5], 300 nM; in test [6] it was 5800 nM. In addition, in test [7], the “KD(IIaH)/KD(IIb)” value is 692. In test [7], the “KD(IIaR)/KD(IIb)” value is 35.4.

B4: IL6R-BP551/IL6R-L (antibody, human IgG1, kappa)
heavy: QVQLQESGPGLVKPSETLSLTCAVSGHSISHDHAWSWVRQPPGEGLEWIGFISYSGITNYNPSLQGRVTISRDNSKNTLYLQMNSLRAEDTAVYYCARSLARTTAMDYWGEGTLVTVSSASTKGPSVFPLAPSSKSTSGGTAALGCLVKDYFPEPVTVSWNSGALTSGVHTFPAVLQSSGLYSLSSVVTVPSSSLGTQTYICNVNHKPSNTKVDKKVEPKSCDKTHTCPPCPAPELLGDDSVFLFPPKPKDTLMISRTPEVTCVVIDVSEEDGDVKFNWYVDGVEVHNAKTKPREEQDNSTYRVVSVLTVLHQDWLNGKEYKCKVSNKALPRPIEKTISKAKGQPREPQVYTLPPSRDELTKNQVSLTCLVKGFYPSDIAVEWESNGQPENNYKTTPPVLDSDGSFFLYSKLTVDKSRWQQGNVFSCSVMHEALHNHYTQESLSLSP
light: not shown
notes: copies: 2 + 2
Turning to B4, in test [1], the “KD(IIb) parent/KD(IIb) altered polypeptide” value was determined as 482. The “KD(IIaR) parent/KD(IIaR) altered polypeptide” value in test [2] was 4.5. In addition, the equilibrium dissociation constant (Kd) in test [3] came to 6.4 nM; in test [4], 32 nM; in test [5], 250 nM; in test [6], 2800 nM. The “KD(IIaH)/KD(IIb)” value in test [7] is 436. Moreover, in test [7], the “KD(IIaR)/KD(IIb)” value was found to be 38.1.

B5: IL6R-BP540/IL6R-L (antibody, human IgG1, kappa)
heavy: QVQLQESGPGLVKPSETLSLTCAVSGHSISHDHAWSWVRQPPGEGLEWIGFISYSGITNYNPSLQGRVTISRDNSKNTLYLQMNSLRAEDTAVYYCARSLARTTAMDYWGEGTLVTVSSASTKGPSVFPLAPSSKSTSGGTAALGCLVKDYFPEPVTVSWNSGALTSGVHTFPAVLQSSGLYSLSSVVTVPSSSLGTQTYICNVNHKPSNTKVDKKVEPKSCDKTHTCPPCPAPELLGDDSVFLFPPKPKDTLMISRTPEVTCVVIDVSEEDGPVKFNWYVDGVEVHNAKTKPREEQDNSTYRVVSVLTVLHQDWLNGKEYKCKVSNKALPRPIEKTISKAKGQPREPQVYTLPPSRDELTKNQVSLTCLVKGFYPSDIAVEWESNGQPENNYKTTPPVLDSDGSFFLYSKLTVDKSRWQQGNVFSCSVMHEALHNHYTQESLSLSP
light: not shown
notes: copies: 2 + 2
Take B5: the “KD(IIb) parent/KD(IIb) altered polypeptide” value in test [1] came out at 541. Also, in test [2], the “KD(IIaR) parent/KD(IIaR) altered polypeptide” value was 5.2. Besides, the Kd in test [3] stood at 5.7 nM; in test [4] it was 96 nM; in test [5], 210 nM; in test [6] it was 4600 nM. Further, the “KD(IIaH)/KD(IIb)” value in test [7] was 803. The “KD(IIaR)/KD(IIb)” value in test [7] amounted to 36.6.

B6: IL6R-BP539/IL6R-L (antibody, human IgG1, kappa)
heavy: QVQLQESGPGLVKPSETLSLTCAVSGHSISHDHAWSWVRQPPGEGLEWIGFISYSGITNYNPSLQGRVTISRDNSKNTLYLQMNSLRAEDTAVYYCARSLARTTAMDYWGEGTLVTVSSASTKGPSVFPLAPSSKSTSGGTAALGCLVKDYFPEPVTVSWNSGALTSGVHTFPAVLQSSGLYSLSSVVTVPSSSLGTQTYICNVNHKPSNTKVDKKVEPKSCDKTHTCPPCPAPELLGDDSVFLFPPKPKDTLMISRTPEVTCVVIDVGEEDGPVKFNWYVDGVEVHNAKTKPREEQDNSTYRVVSVLTVLHQDWLNGKEYKCKVSNKALPRPIEKTISKAKGQPREPQVYTLPPSRDELTKNQVSLTCLVKGFYPSDIAVEWESNGQPENNYKTTPPVLDSDGSFFLYSKLTVDKSRWQQGNVFSCSVMHEALHNHYTQESLSLSP
light: not shown
notes: copies: 2 + 2
For B6, in test [1], the “KD(IIb) parent/KD(IIb) altered polypeptide” value turned out to be 369. For the same molecule, the “KD(IIaR) parent/KD(IIaR) altered polypeptide” value in test [2] was determined as 3.4. Besides, the Kd in test [3] is 8.4 nM; in test [4], 64 nM; in test [5] it was 330 nM; in test [6] it was 5600 nM. In test [7], the “KD(IIaH)/KD(IIb)” value was determined as 667. The “KD(IIaR)/KD(IIb)” value in test [7] was found to be 39.

B7: IL6R-BP550/IL6R-L (antibody, human IgG1, kappa)
heavy: QVQLQESGPGLVKPSETLSLTCAVSGHSISHDHAWSWVRQPPGEGLEWIGFISYSGITNYNPSLQGRVTISRDNSKNTLYLQMNSLRAEDTAVYYCARSLARTTAMDYWGEGTLVTVSSASTKGPSVFPLAPSSKSTSGGTAALGCLVKDYFPEPVTVSWNSGALTSGVHTFPAVLQSSGLYSLSSVVTVPSSSLGTQTYICNVNHKPSNTKVDKKVEPKSCDKTHTCPPCPAPELLGDDSVFLFPPKPKDTLMISRTPEVTCVVIDVGEEDGDVKFNWYVDGVEVHNAKTKPREEQDNSTYRVVSVLTVLHQDWLNGKEYKCKVSNKALPRPIEKTISKAKGQPREPQVYTLPPSRDELTKNQVSLTCLVKGFYPSDIAVEWESNGQPENNYKTTPPVLDSDGSFFLYSKLTVDKSRWQQGNVFSCSVMHEALHNHYTQESLSLSP
light: not shown
notes: copies: 2 + 2
As to B7, the “KD(IIb) parent/KD(IIb) altered polypeptide” value in test [1] amounted to 406. Further, in test [2], the “KD(IIaR) parent/KD(IIaR) altered polypeptide” value came out at 3.3. Moreover, the Kd in test [3] turned out to be 7.6 nM; in test [4], 25 nM; in test [5], 340 nM; in test [6], 5000 nM. Besides, in test [7], the “KD(IIaH)/KD(IIb)” value is 655. Further, in test [7], the “KD(IIaR)/KD(IIb)” value is 44.2.
